To fix the notation:
B1: BIIB-9-629 (antibody, V domains shown)
VH: QVQLVQSGAEVKKPGASVKVSCKASGYTFTSYYMHWVRQAPGQGLEWMGVINPSGGSTSYAQKFQGRVTMTRDTSTSTVYMELSSLRSEDTAVYYCARDPSQDYATGTGWFDPWGQGTLVTVSS
VL: DIQLTQSPSSLSASVGDRVTITCQASQDISNYLNWYQQKPGKAPKLLIYDASNLETGVPSRFSGSGSGTDFTFTISSLQPEDIATYYCQQLDSLPPTFGGGTKVEIK
B2: BIIB-9-397 (antibody, V domains shown)
VH: QVQLQESGPGLVKPSETLSLTCAVSGYSISSGYYWAWIRQPPGKGLEWIGSIYHSGSTYYNPSLKSRVTISVDTSKNQFSLKLSSVTAADTAVYYCARDVWYVGGFDPWGQGTLVTVSS
VL: B1 VL with L4M, L91S, S93D, L94H
B3: BIIB-9-475 (antibody, V domains shown)
VH: QVQLQESGPGLVKPSETLSLTCTVSGGSISSYYWSWIRQPPGKGLEWIGSIYYSGSTNYNPSLKSRVTISVDTSKNQFSLKLSSVTAADTAVYYCARDVGGYDYGVGAFDIWGQGTMVTVSS
VL: B1 VL with L4M, S30T, L91S, D92S, S93N, L94F, P96L
B4: BIIB-9-460 (antibody, V domains shown)
VH: QVQLVQSGAEVKKPGASVKVSCKASGYTFTSYYMHWVRQAPGQGLEWMGIINPSGGSTSYAQKFQGRVTMTRDTSTSTVYMELSSLRSEDTAVYYCARDISTDGESSLYYYMDVWGKGTTVTVSS
VL: EIVMTQSPATLSVSPGERATLSCRASQSVSSNLAWYQQKPGQAPRLLIYGASTRATGIPARFSGSGSGTEFTLTISSLQSEDFAVYYCQQHDNFPFTFGGGTKVEIK
B5: BIIB-9-1271 (antibody, V domains shown)
VH: QVQLVQSGAEVKKPGASVKVSCKASGYTFTSYYMHWVRQAPGQGLEWMGIINPSGGSTSYAQKFQGRVTMTRDTSTSTVYMELSSLRSEDTAVYYCARDTGGYAFDIWGQGTLVTVSS
VL: B4 VL with E70D, S80P, V85T, H91G, D92F, N93S
B6: BIIB-9-1284 (antibody, V domains shown)
VH: QVQLVQSGAEVKKPGASVKVSCKASGYTFTSYYMVWVRQAPGQGLEWMGIINPSGGSTSYAQKFQGRVTMTRDTSTSTVYMELSSLRSEDTAVYYCARVPTYRYSYLAFDIWGQGTMVTVSS
VL: B4 VL with M4L, S30G, D92N, N93H, F94L, F96I
B7: BIIB-9-590 (antibody, V domains shown)
VH: QVQLVQSGAEVKKPGASVKVSCKASGYTFTSYYMHWVRQAPGQGLEWMGIINPSGGSTSYAQKFQGRVTMTRDTSTSTVYMELSSLRSEDTAVYYCARDQEWAYYGMDVWGQGTTVTVSS
VL: B4 VL with M4L, V13L, N32Y, G50D, T53N, E70D, Q79E, S80P, H91V, F96L
B8: BIIB-9-470 (antibody, V domains shown)
VH: EVQLVESGGGLVQPGGSLRLSCAASGFTFSSYWMSWVRQAPGKGLEWVANIKQDGSEKYYVDSVKGRFTISRDNAKNSLYLQMNSLRAEDTAVYYCARDAGIAWALDYWGQGTLVTVS
VL: DIQMTQSPSTLSASVGDRVTITCRASQSISSWLAWYQQKPGKAPKLLIYKASSLESGVPSRFSGSGSGTEFTLTISSLQPDDFATYYCQHPHSWTFGGGTKVEIK
B9: BIIB-9-615 (antibody, V domains shown)
VH: QVQLVQSGAEVKKPGASVKVSCKASGYTFTSYYMHWVRQAPGQGLEWMGIINPSGGSTSYAQKFQGRVTMTRDTSTSTVYMELSSLRSEDTAVYYCARDSPSSSSYWSLDLWGRGTLVTVSS
VL: EIVLTQSPATLSLSPGERATLSCRASQSVSSYLAWYQQKPGQAPRLLIYDASNRATGIPARFSGSGSGTDFTLTISSLEPEDFAVYYCQQSCHWPWTFGGGTKVEIK
B10: BIIB-9-433 (antibody, V domains shown)
VH: QLQLQESGPGLVKPSETLSLTCTVSGGSISSSRYYWGWIRQPPGKGLEWIGSIYYSGSTYYNPSLKSRVTISVDTSKNQFSLKLSSVTAADTAVYYCARDAGYSAELFDYWGQGTLVTVSS
VL: B9 VL with C92S, H93A, W94Y, W96P
B11: BIIB-9-1270 (antibody, V domains shown)
VH: B5 VH
VL: B9 VL with C92A, H93D, W94F, W96F
B12: BIIB-9-606 (antibody, V domains shown)
VH: QVQLVQSGAEVKKPGASVKVSCKASGYTFTSYYMHWVRQAPGQGLEWMGIINPSGGSTSYAQKFQGRVTMTRDTSTSTVYMELSSLRSEDTAVYYCARTKWSSSPYGMDVWGQGTTVTVSS
VL: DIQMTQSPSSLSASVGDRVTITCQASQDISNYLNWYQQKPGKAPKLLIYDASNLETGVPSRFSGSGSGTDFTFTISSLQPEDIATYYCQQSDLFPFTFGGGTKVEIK
B13: BIIB-9-582 (antibody, V domains shown)
VH: B12 VH with H35V, T99A, K100P, W101T, S102Y, S103F, S104Y, P105S
VL: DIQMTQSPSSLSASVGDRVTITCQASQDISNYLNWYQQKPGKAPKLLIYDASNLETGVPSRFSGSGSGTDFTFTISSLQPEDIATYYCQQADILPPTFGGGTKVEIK
B14: BIIB-9-465 (antibody, V domains shown)
VH: QVQLVQSGAEVKKPGASVKVSCKASGYTFTSYYMVWVRQAPGQGLEWMGIINPSGGSTSYAQKFQGRVTMTRDTSTSTVYMELSSLRSEDTAVYYCARSPTDGYYFDLWGRGTLVTVSS
VL: DIQMTQSPSTLSASVGDRVTITCRASQSINSWLAWYQQKPGKAPKLLISDASSLESGVPSRFSGSGSGTEFTLTISSLQPDDFATYYCQQYEIFPFTFGGGTKVEIK
B15: BIIB-9-484 (antibody, V domains shown)
VH: EVQLVESGGGLVKPGGSLRLSCAASGFTFSSYSMNWVRQAPGKGLEWVSSISSSSSYIYYADSVKGRFTISRDNAKNSLYLQMNSLRAEDTAVYYCARDVGGYAGYYGMDVWGQGTTVTVSS
VL: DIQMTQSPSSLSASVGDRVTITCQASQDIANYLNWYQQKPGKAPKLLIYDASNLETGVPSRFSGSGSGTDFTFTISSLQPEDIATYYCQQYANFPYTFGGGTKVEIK
B16: BIIB-9-585 (antibody, V domains shown)
VH: QLQLQESGPGLVKPSETLSLTCTVSGGSISSSDYYWGWIRQPPGKGLEWIGSIYYSGSTYYNPSLKSRVTISVDTSKNQFSLKLSSVTAADTAVYYCAREVGTYYYGLDFWFDPWGQGTLVTVSS
VL: DIQMTQSPSSVSASVGDRVTITCRASQGISSWLAWYQQKPGKAPKLLIYAASSLQSGVPSRFSGSGSGTDFTLTISSLQPEDFATYYCQQANSYPITFGGGTKVEIK
B17: BIIB-9-1283 (antibody, V domains shown)
VH: B6 VH
VL: B16 VL with N92S, Y94F, I96P
B18: BIIB-9-414 (antibody, V domains shown)
VH: B12 VH with T99D, K100P, W101Y, S103Y, S104G, P105M, G107Y, M108F, V110Y, T116L
VL: B16 VL with A91G, N92D, S93V, Y94F, I96F
B19: BIIB-9-1269 (antibody, V domains shown)
VH: B14 VH with V35H, S99D, P100R, T101G, D102Q, G103Y, Y105H
VL: B16 VL with T20A, N92S, Y94F, I96F
B20: BIIB-9-1274 (antibody, V domains shown)
VH: B5 VH
VL: B16 VL with Y94F, I96F
B21: BIIB-9-1272 (antibody, V domains shown)
VH: B5 VH
VL: B16 VL with N92S, Y94F, I96F
B22: BIIB-9-415 (antibody, V domains shown)
VH: B7 VH with Q100G, E101L, W102S, A103S, Y104G, G106Y, M107W, V109N, T115L
VL: B16 VL with S30D, A91G, N92D, S93A, Y94F, I96F
B23: BIIB-9-425 (antibody, V domains shown)
VH: QVQLVQSGAEVKKPGASVKVSCKASGYTFTSYYMHWVRQAPGQGLEWMGIINPSGGSTSYAQKFQGRVTMTRDTSTSTVYMELSSLRSEDTAVYYCAREPTWDVAYDYWGQGTLVTVS
VL: EIVLTQSPGTLSLSPGERATLSCRASQSVSSDYLAWYQQKPGQAPRLLIYGASSRATGIPDRFSGSGSGTDFTLTISRLEPEDFAVYYCQQYDSHPYTFGGGTKVEIK
B24: BIIB-9-592 (antibody, V domains shown)
VH: QLQLQESGPGLVKPSETLSLTCTVSGGSISSNSYYWGWIRQPPGKGLEWIGSIYYSGSTYYNPSLKSRVTISVDTSKNQFSLKLSSVTAADTAVYYCARDSNYDSSGYALYYYGMDVWGQGTTVTVSS
VL: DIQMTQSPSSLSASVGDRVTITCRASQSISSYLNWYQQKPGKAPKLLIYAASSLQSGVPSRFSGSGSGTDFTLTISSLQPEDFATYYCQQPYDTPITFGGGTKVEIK

Changes are numbered by the printed parent chain.

The values that follow come from patent US20230192896A1 (published 2023).

The target in the assay is free FIXa (activated Factor IX) (UniProt P00740 47-191; P00740 227-461). The assay can be described thus: BLI. For orientation: Biolayer interferometry detects binding as a change in optical thickness at a sensor tip.
In the case of B1, the Kd was determined as 25.6 nM.
In the case of B2, the Kd worked out at 4.89 nM.
B3 gave a Kd of 5.93 nM.
For the molecule B4, the Kd worked out at 20.1 nM.
The result for B5 reads 44.5 nM.
Under B6 stands 41.2 nM; under B7, 11.3 nM; under B8, 19.6 nM.
Molecule B9 yielded a Kd of 23.2 nM.
Turning to B10, the affinity, expressed as Kd, was 16.4 nM.
The result for B11 reads 24.2 nM; that for B12, 16 nM; that for B13, 14.2 nM.
Turning to B14, the Kd is 19.8 nM.
B15 yielded a Kd of 37.7 nM.
B16: binding was put at a Kd of 12.4 nM.
For the molecule B17, the Kd stood at 37 nM.
For the molecule B18, the dissociation constant (Kd) worked out at 16.6 nM.
For the molecule B19, binding was characterised by a dissociation constant (Kd) of 45.1 nM.
Consider B20, for which the Kd came out at 28.4 nM.
Turning to B21, the affinity, expressed as Kd, was 45.6 nM.
Take B22: binding was characterised by a dissociation constant (Kd) of 14.4 nM.
B23 came in with a Kd of 5.46 nM.
As for B24, the affinity, expressed as Kd, was 21.7 nM.

As usually defined, the Kd is the constant that tells how readily two partners part at equilibrium.
